Experimental data taken from the supplement of paper PMC10899765.

Tests used:
Conditions in all cases: 20 nM; 72 h
[1] = test system: MCF10A; test: percent viability (nuclei count relative to siNT); higher = more viable cells
Procedure: (§1)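 After 72 h, cells were fixed and stained with Hoechst and anti-fibrillarin, and nucleoli per nucleus were counted with CellProfiler. Values are plate-adjusted percent effect for the one-nucleolus and 5+ nucleoli phenotypes, normalised to siNT (0%) and to the positive controls siNOL11 or siKIF11 (100%), as the mean of biological triplicates. Percent viability is the nuclei count relative to siNT.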

[2] = test system: MCF10A; test: 5+ nucleoli phenotype percent effect (relative to siNT 0% and siKIF11 100%); higher = more cells with five or more nucleoli
Procedure: as §1

[3] = test system: MCF10A; test: one-nucleolus phenotype percent effect (relative to siNT 0% and siNOL11 100%); higher = more cells with one nucleolus (ribosome biogenesis inhibition)
Procedure: as §1

Sequence | percent viability [1] [%] | 5+ nucleoli phenotype percent effect [2] [%] | one-nucleolus phenotype percent effect [3] [%]
UAGCAAUACAGUACAAAUAUAGU [hsa-miR-4703-5p] | 131 | 32.3 | -22
CGUGUUCACAGCGGACCUUGAU [hsa-miR-124-5p] | 77.3 | -28.6 | 6.24
AAAACUAGGACUGUGUGGUGUA [hsa-miR-7844-5p] | 40.6 | -30.8 | 15.8
UUUGAGGCUACAGUGAGAUGUG [hsa-miR-1304-5p] | 68.3 | 15.4 | 0.012
UAUGCAUUGUAUUUUUAGGUCC [hsa-miR-586] | 94.9 | 54 | -12.9
UUCUGGAAUUCUGUGUGAGGGA [hsa-miR-1299] | 58.7 | -3.13 | 19.2
GACCUGGACAUGUUUGUGCCCAGU [hsa-miR-619] | 128 | 64.8 | -30.8
AGAAGAAGGCGGUCGGUCUGCGG [hsa-miR-3185] | 29.1 | -27.8 | 33.8
CAAUGUUUCCACAGUGCAUCAC [hsa-miR-33a-3p] | 51.1 | 2.57 | -10.4
UACGUAGAUAUAUAUGUAUUUU [hsa-miR-1277-3p] | 135 | 41.8 | -20.9
CAAAUAAUACCACAGUGGGUGU [hsa-miR-5692a] | 105 | 46.5 | -17.8
CCCAUGCCUCCUGCCGCGGUC [hsa-miR-6872-3p] | 48 | -8.71 | 17.4
UUUAAGCAGGAAAUAGAAUUUA [hsa-miR-4503] | 100 | -5.17 | -6.55
UCCCAGGGUCUGGUCAGAGUUG [hsa-miR-6764-5p] | 25.8 | -18.4 | 29.5
GCCGGGGCUUUGGGUGAGGG [hsa-miR-6784-5p] | 171 | 49 | -23.3
CCCUCAUCUUCCCCUCCUUUC [hsa-miR-6891-3p] | 35.9 | -10.8 | 36.8
CGGCUCUGGGUCUGUGGGGA [hsa-miR-760] | 53 | -2.61 | 7.07
AUGUAUAAAUGUAUACACAC [hsa-miR-568] | 178 | 26.1 | -26.3
UCACGCGGAGAGAUGGCUUUG [hsa-miR-3186-3p] | 20.7 | -13.4 | 11.3
AACGGGAAUGCAGGCUGUAUCU [hsa-miR-4681] | 30.6 | 46 | -21

Sequence | percent viability [1] [%] | 5+ nucleoli phenotype percent effect [2] [%] | one-nucleolus phenotype percent effect [3] [%]
AGGGACUUUUGGGGGCAGAUGUG [hsa-miR-365a-5p] | 56 | 58.6 | -13.1
GCAGGCACAGACAGCCCUGGC [hsa-miR-4269] | 30.1 | -29 | 43.1
CACAGCAAGUGUAGACAGGCA [hsa-miR-3120-3p] | 51.8 | 22.9 | -20.3
GGGGUUCCUGGGGAUGGGAUUU [hsa-miR-23a-5p] | 103 | 40.3 | -14
ACAUCGCCCCACCUUCCCCAG [hsa-miR-6785-3p] | 102 | 55.5 | -34.4
UCCUCCUCUACCUCAUCCCAGU [hsa-miR-5193] | 35.1 | -13.6 | 9.86
UGCGGGGCUAGGGCUAACAGCA [hsa-miR-744-5p] | 12 | -35.1 | 53.9
UGGGGAUUUGGAGAAGUGGUGA [hsa-miR-4450] | 16.5 | 3.63 | 46.8
AACGCCAUUAUCACACUAAAUA [hsa-miR-122-3p] | 131 | 35.4 | -17.4
ACUGGAAUUGGAGUCAAAA [hsa-miR-6128] | 105 | 36.5 | -18.6
AGACACUAUACGAGUCAUAU [hsa-miR-3117-5p] | 120 | 12.6 | 0.975
CAAGCCUCUCCUGCCCUUCCAG [hsa-miR-7109-3p] | 51.1 | 31.1 | -12.1
ACUCAAAAGAUGGCGGCACUUU [hsa-miR-371b-5p] | 96.1 | 19.5 | -20.5
UGGGGGUGGUCUCUAGCCAAGG [hsa-miR-6842-5p] | 9.46 | -11.8 | -7.28
CCCUGAGACCCUAACCUUAA [hsa-miR-4324] | 84 | 38.6 | -27
GUGAGGGACUGGGAUUUGUGG [hsa-miR-6834-5p] | 81.4 | 23.5 | -28.7
UCUCUUCAUCUACCCCCCAG [hsa-miR-6515-3p] | 85.2 | -2.57 | 4.68
CCUGGACACCGCUCAGCCGGCCG [hsa-miR-4638-3p] | 106 | 8.98 | -15.8
UUCUCAAGAGGGAGGCAAUCAU [hsa-miR-514b-5p] | 43.1 | 36.5 | -22.9
AAAAGUAAUUGCAGUUUUUGC [hsa-miR-548ar-5p] | 134 | 22.8 | -24.8

Sequence | percent viability [1] [%] | 5+ nucleoli phenotype percent effect [2] [%] | one-nucleolus phenotype percent effect [3] [%]
UUAAUAUCGGACAACCAUUGU [hsa-miR-889] | 108 | 0.0778 | -0.642
AGGAUUUCAGAAAUACUGGUGU [hsa-miR-3167] | 49.1 | -10.4 | -14.6
CCGGGGCAGAUUGGUGUAGGGUG [hsa-miR-5090] | 82 | 24.7 | -10.2
UGACAACUAUGGAUGAGCUCU [hsa-miR-549a] | 77.8 | 15.5 | -18.5
UGAGGGCUCCAGGUGACGGUGG [hsa-miR-4721] | 22 | -20.6 | 27.2
AGACAGUAGUUCUUGCCUGGUU [hsa-miR-4645-3p] | 52.7 | -25 | 18.2
CAUGCCUUGAGUGUAGGACCGU [hsa-miR-532-5p] | 19.5 | -20.1 | 19.3
CUCCUAUAUGAUGCCUUUCUUC [hsa-miR-337-3p] | 52 | 2.51 | -11
CGCACCUGCCUCUCACCCACAG [hsa-miR-6804-3p] | 74.2 | 33.2 | -33.9
AAAGUGCUUCUCUUUGGUGGGU [hsa-miR-520d-3p] | 74.3 | 58.4 | -16.1
ACAUCCUGCUCCACAGGGCAGAGG [hsa-miR-4793-5p] | 52.3 | -0.984 | -10.7
AGACCCUGGUCUGCACUCUAUC [hsa-miR-504] | 64.6 | 3.4 | -10.9
CUCAGUAGCCAGUGUAGAUCCU [hsa-miR-222-5p] | 57.4 | -14.7 | 14
AAAAACUGAGACUACUUUUGCA [hsa-miR-548e] | 140 | 40.3 | -28.9
UCCUGCGCGUCCCAGAUGCCC [hsa-miR-1539] | 60.9 | -2.94 | 15.6
CUCAAACCGGCUGUGCCUGUGG [hsa-miR-6715b-3p] | 62.7 | -11.8 | 10
GCUGGGCAGGGCUUCUGAGCUCCUU [hsa-miR-612] | 77.6 | -7.01 | 14.9
UACAGUAUAGAUGAUGUACU [hsa-miR-144-3p] | 119 | -8.45 | -2.3
UCAUUUUUGUGAUGUUGCAGCU [hsa-miR-153-5p] | 55 | 3.53 | -16.7
